No end group written: not given here. *: point of attachment. Biotin = O=C1N[C@H]2[C@H](CS[C@H]2CCCCC(=O)*)N1
Key:
PC-3 cells = experiment: Oris exclusion zone cell migration assay; assay type: cell-based; conditions: PC-3, 48 hours; taxol 5 nM, H10 10 μg/ml, control peptide 10 μg/ml, AGR2 antibody; fluorescent microscopy of cell-free zone
Protocol: (§1) Cells were seeded into Oris™ 96-well plate with silicon stoppers in place (CMA1.101). Cell density was optimized for each cell type, PC-3 and MDA-MB-231 were seeded at 2.5×10^5 cells/mL or 6×10^4 cells/mL. Stoppers were removed 12 hours post seeding according to the manufacturer's protocol and treatments were added, Taxol (5 nM) (Selleckchem), H10 peptide (10 μg/ml), scrambled peptide (10 μg/ml), mouse anti-AGR2 antibody (1:50 of 2 μg/ml) (Santa Cruz Biotechnology), mouse-IgG (Santa Cruz Biotechnology), DMSO as control. After 48 hours, growth medium was aspirated and cells were fixed with 4% paraformaldehyde (Alfa Aesar) for 15 minutes at RT and washed with PBS. Cells were stained with Rhodamine phalloidin (Biotium) 1:40 and Hoechst (Invitrogen) 1:10,000 for 20 minutes at RT and washed with PBS.
(§2) Imaging was performed on a Zeiss Observer.Z1 microscope at 2.5x objective with AxioCam MRm camera and Axio Vision 4.8 software. Images were processed using ImageJ software package ( http://rsb.info.nih.gov/ij/) and following the cell migration method previously designed. The data was analyzed using GraphPad Prism 7.

[1] = system: EGFR phosphorylation in PC3 cells; experiment: Western blot of EGFR / p-EGFR-Y1068; assay type: cell-based; conditions: PC3 cells dosed 16 hours, p-EGFR-Y1068 by western blot
Protocol: We sought to ascertain a potential mechanism leading to decreased viability of cells upon exposure to H10 by examining cancer related pathways that have been linked with AGR2. […] We investigated the impact of H10 on EGFR phosphorylation as a possible mechanism of action. PC3 cells were dosed with H10 for 16 hours and the levels of EGFR and p-EGFR-Y1068 were analyzed by western blot (Figure 5C). […] Since amphiregulin is downstream of the HIPPO pathway, we also assessed the phosphorylation of the HIPPO effector, YAP1. We hypothesized that H10 may indirectly downregulate EGFR phosphorylation by altering activity of YAP1 (phosphorylation of YAP1 prevents […] translocation to the nucleus and transcription of amphiregulin [24]). Cell lysates from PC3 cells treated with H10 and the scrambled peptide were subject to immunoblot (Figure 5C).

AGR2 = biological target: T1, AGR2 (Homo sapiens, UniProt O95994); experiment: SPR competition, AGR2 binding to immobilized H10 in presence of free peptide; conditions: peptide 500 nM co-/pre-incubated with AGR2 500 nM
T1 construct: histidine tag (N, cleaved yes); made in house; host or cells: E. coli BL21 de3
T1 sequence (O95994 with tags, fused parts or gaps): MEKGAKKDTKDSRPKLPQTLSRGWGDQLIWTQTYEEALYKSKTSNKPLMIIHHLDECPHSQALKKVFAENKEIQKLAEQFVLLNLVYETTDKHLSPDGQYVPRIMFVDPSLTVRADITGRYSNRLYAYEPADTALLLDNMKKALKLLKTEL
Protocol: SPR measurements were carried out on a Biacore T200 (GE) and data was analyzed using Biacore T200 Evaluation Software (version 1.0). Data was analyzed for a 1:1, two-stage and bivalent binding model. Average affinities were obtained from independent experimental repeats and errors are given as mean absolute deviations. Measurements were carried out at flow rates of 20 μL/min and confirmed experimentally to avoid mass transfer limitation. For direct binding studies of AGR2 to biotinylated H10-peptide a carboxymethyl-Dextran coated CM5 chip was coated with Streptavidin using standard amine coupling chemistry. Residual activated carboxyl groups were blocked with 1,2-Ethylenediamine. In contrast to conventional ethanolamine blocking, this procedure introduces positive charges to partially compensate the negative surface charge and reduce unspecific binding by AGR2. Biotinylated peptide was loaded and remaining free biotin sites were blocked by incubating the chip in biotin containing buffer over night to allow for biotinylated peptides to be used in competition assays. Optimal binding and minimal unspecific interaction was found for a running buffer consisting of Tris (100 mM, pH 7.5), NaCl (150 mM) and MgCl2 (10 mM).

MDA-MB-231 cells = experiment: Oris exclusion zone cell migration assay; assay type: cell-based; conditions: MDA-MB-231, 48 hours; H10 5 μmoles/L (10 μg/ml), taxol 5 nM, control peptide 10 μg/ml
Protocol: as §1, §2

PC-3 = experiment: Luminescent cytotoxicity (ATP viability, CellTiter-Glo) assay; assay type: cell-based; conditions: PC-3, 48 hours, eight concentrations, 4PL fit, read-out: IC50, cell viability
Protocol: (§3) Cells were seeded into 96-well White with Clear Flat Bottom plates (Costar). Cell density was optimized for each cell type, PC-3 and MDA-MB-231 were seeded at 0.24×10^6 cells/mL or 0.06×10^6 cells/mL. After 12 hours, treatments were added, with the stock concentration for Taxol at 400 nM (Selleckchem), H10 peptide was 200 μg/mL and the control peptide was 200 μg/mL. We tested a total of eight concentrations using three-fold serial dilutions from the stock concentration. After 48 hours of treatment, we used the CellTiter-Glo Luminescent Cell Viability Assay (Promega) according to the manufacturer's protocol. The data was analyzed on Prism software using “log(inhibitor) vs. response” option. IC50 was calculated using the 4PL equation 1 as above.

MDA-MB-231 = experiment: as above; assay type: cell-based; conditions: MDA-MB-231, 48 hours, eight concentrations, 4PL fit, read-out: IC50, cell viability
Protocol: as §3

[2] = biological target: T2, extracellular AGR2 (eAGR2) in spent media of cancer cell lines (human (endogenous in MCF-7 and 22Rv1), UniProt O95994 21-175); experiment: cell-based or functional assay
T2 sequence (looked up): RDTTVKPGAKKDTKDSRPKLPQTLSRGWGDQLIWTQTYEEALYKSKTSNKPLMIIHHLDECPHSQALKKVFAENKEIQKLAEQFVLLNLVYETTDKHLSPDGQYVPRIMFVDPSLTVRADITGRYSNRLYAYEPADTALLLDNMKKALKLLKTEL

H10 peptide (biotin-…) = biological target: T3, H10 peptide (biotin-…); experiment: ELISA; conditions: chain shown with the change, read off a plot
T3 chain: GGGSGMKMQVRIYLV

[3] = AGR2 100 ng/ml, parent: est. 61
[4] = AGR2 200 ng/ml, parent: est. 76
[5] = AGR2 400 ng/ml, parent: est. 82
[6] = AGR2 600 ng/ml, parent: est. 83
[7] = AGR2 800 ng/ml, parent: est. 91

Molecule	response (H10 peptide (biotin-…); [3])	response (H10 peptide (biotin-…); [4])	response (H10 peptide (biotin-…); [5])	response (H10 peptide (biotin-…); [6])	response (H10 peptide (biotin-…); [7])	also measured
CC(=O)O[C@H]1C(=O)[C@@]2(C)[C@H]([C@H](OC(=O)c3ccccc3)[C@]3(O)C[C@H](OC(=O)[C@H](O)[C@@H](NC(=O)c4ccccc4)c4ccccc4)C(C)=C1C3(C)C)[C@]1(OC(C)=O)CO[C@@H]1C[C@@H]2O [taxol]	–	–	–	–	–	inhibition of cell migration (PC-3 cells): inhibits cell migration of PC-3 cells
GGGSG VMLKYMIQRV [scrambled peptide]	–	–	–	–	–	concentration sufficient to downregulate EGFR phosphorylation [1]: > 20 µM
Biotin-GSGSGSGSGSGSGSS [control peptide, biotinylated Gly/Ser control peptide, length 15]	–	–	–	–	–	suppression of AGR2 binding to immobilized H10 by free peptide (AGR2): largely ineffective; inhibition of cell migration (MDA-MB-231 cells): did not alter cell migration; IC50 (PC-3): > 100 µM; IC50 (MDA-MB-231): > 100 µM
Biotin-GGGSGMKMQVRIYLV [H10 peptide (biotin-GGGSGMKMQVRIYLV)]	–	–	–	–	–	ATP viability assay (CellTiter-Glo), MDA-MB-231 cells, 48 hours, IC50 of H10 [2]: 12 µM; ATP viability assay (CellTiter-Glo), PC-3 cells, 48 hours, IC50 of H10 [2]: 9 µM

Further lines, with some results ahead:

response (H10 peptide (biotin-…); [3])	response (H10 peptide (biotin-…); [4])	response (H10 peptide (biotin-…); [5])	response (H10 peptide (biotin-…); [6])	response (H10 peptide (biotin-…); [7])	Molecule	also measured
30 % of binding	27 % of binding	30 % of binding	36 % of binding	55 % of binding	Δ27 AGR2 (recombinant anterior gradient protein 2 without the ER leader sequence), O95994 E96K (protein) GAKKDTKDSRPKLPQTLSRGWGDQLIWTQTYEEALYKSKTSNKPLMIIHHLDECPHSQALKKVFAENKKIQKLAEQFVLLNLVYETTDKHLSPDGQYVPRIMFVDPSLTVRADITGRYSNRLYAYEPADTALLLDNMKKALKLLKTELGLNDIFEAQKIEWHE	–
42 % of binding	42 % of binding	46 % of binding	51 % of binding	57 % of binding	Δ27 AGR2 (recombinant anterior gradient protein 2 without the ER leader sequence), O95994 E60Q (protein) GAKKDTKDSRPKLPQTLSRGWGDQLIWTQTYEQALYKSKTSNKPLMIIHHLDECPHSQALKKVFAENKEIQKLAEQFVLLNLVYETTDKHLSPDGQYVPRIMFVDPSLTVRADITGRYSNRLYAYEPADTALLLDNMKKALKLLKTELGLNDIFEAQKIEWHE	–
